As a reminder, the Kd is the concentration at which binding is half-saturated. High values mean a looser complex, low ones a tighter complex. In general, EC50 refers to the midpoint of the concentration-response curve.

From patent US20220267421A1 (INVOX PHARMA, published 2022) come the findings set out here.

Like-named read-outs stand apart in the source and are kept apart here.

Assay [1] addresses T1, human MSLN-His-Avi (human, UniProt Q13421 296-598, single biotin (BirA) in the biotinylated form).
T1 construct: Monomeric, made in HEK293-6E; Used both immobilised and in solution; also called hMSLN-His-Avi; biotinylated hMSLN-His-Avi
Nature of the assay: ratio of the two SPR KD.

The target of assay [2] is T1, human MSLN-His-Avi. Nature of the assay: SPR as Example 4.1 (about 40 RU instead of 100), MSLN immobilised.
For assay [3], the target named is T1, human MSLN-His-Avi. Nature of the assay: SPR as Example 4.1 (about 40 RU instead of 100), MSLN in solution.
Assay [4] concerns the target T2, cell surface human mesothelin (MSLN) (human, UniProt Q13421 296-598).
T2 construct: whole, on cells; also called cell surface MSLN
Kind of assay: flow cytometry, NCI-H226 cells (n = 3). As to the method:
(§1) Briefly, NCI-H226 cells (ATCC CRL-5826) were harvested from T175 cell culture flasks using StemPro Accutase (Gibco, A11105-01). Cells were centrifuged at 1200 rpm for 3 min and resuspended in ice cold FACS buffer made up of DPBS (Life Technologies, 14190169) and 1% BSA (Sigma-Aldrich, A7906) at 2×10⁶ cells/ml and 50 μl per well was seeded in a 96-well V-bottom plate (Costar, 3894). All mAbs tested were diluted in FACS buffer in 120 μl at a concentration range of 0.01-200 nM (4-fold dilutions). The NCI-H226 cells were then centrifuged, supernatant removed and cells resuspended in 100 μl of each mAb dilution and incubated at 4° C. for 45 min. Cells were washed twice by centrifugation with 150 μl FACS buffer, resuspended in 100 μl containing goat anti-human IgG (γ-chain specific) F(ab′)2 fragment-R-Phycoerythrin antibody (Sigma, P8047) diluted 1:1000 in FACS buffer and incubated at 4° C. for 45 min. The cells were washed once with 150 μl FACS buffer and then with 150 μl DPBS, resuspended in 150 μl DPBS containing DAPI (Biotium, 40043) at 1:10.000 and read on the BDCantoll or iQue (Intellicyt). Data was analysed using FlowJo v10 to determine the signal geometric mean for PE for live cells in each well.
In general terms: A flow cytometer gives signals particle by particle.

Assay [5] concerns the target T1, human MSLN-His-Avi. Nature of the assay: SPR (Biacore), hMSLN-His-Avi immobilised at 50 RU, mAb injected. As to the method: (§2) Human MSLN-His-Avi was immobilised on flow cell 2 on a CM5 Series S BIAcore sensor chip (GE Healthcare, BR100530) using an amine coupling kit (GE Healthcare, BR10050) to approximately 200 response units (RU). Flow cell 1 was left blank for subtraction. HEK293-6E supernatants or purified proteins were adjusted with HBS-EP+(GE Healthcare) to approximately 50 nM anti-MSLN mAb per sample. Samples were injected over flow cell 1 and 2 for 2.5 min at 30 μl/min and then allowed to dissociate in HBS-EP buffer for 2.5 min. Regeneration was achieved by injecting 10 mM glycine pH 1.5 (GE Healthcare, BR100354) for 30 seconds at a rate of 30 μl/min. Subtracted data (flow cell 2−flow cell 1) were analysed using BIAevaluation 3.2 Software (GE Healthcare).
(§3) For each bin described in 2.1.3, the binding kinetics were determined using the same method as described in section 2.1.2, except that human or cyno MSLN-His-Avi was immobilised at 50 or 100 RU. Clones were tested at a concentration range of 81 nM to 0.33 nM in 3-fold dilutions.
On the technique in general: Surface plasmon resonance follows binding to a sensor surface in real time, without labels.

Assay [6] has as its target T1, human MSLN-His-Avi. Kind of assay: SPR (Biacore), hMSLN-His-Avi immobilised at 100 RU, mAb injected. As to the method: as §2, §3
Assay [7] concerns the target T1, human MSLN-His-Avi. Nature of the assay: ratio of the two SPR KD. As to the method:
as §2
(§4) Binding of the selected anti-MSLN clones in mAb² format, to recombinant human and cyno MSLN-His-Avi antigen was measured by SPR using a Biacore T200 processing unit (GE Healthcare). As previously described, it was desirable to bind more strongly to immobilised antigen than to soluble antigen. To assess the binding properties of the clones, binding kinetics to immobilised MSLN antigen were determined as described in section 2.1.2 and compared to the kinetics obtained when MSLN antigens in solution bound to captured clones.
(§5) For the capture experiments, clones in mAb² format were captured using a BIAcore sensor series S chip Protein G (GE Healthcare, 29179315). mAb² diluted in HBS-EP buffer (GE Healthcare, BR100188) containing 900 mM […] at 1 μg/ml, were injected individually on flow cell 2, 3 and 4 at 30 μl/min to achieve a response of approximately 100 RU. G1-AA/HeID1.3 was captured on flow cell 1. The recombinant human and cyno MSLN-His-Avi (section 1.1), diluted in HBS-EP buffer containing 900 mM […], were injected on flow cell 1, 2, 3 or 4 as appropriate at a concentration range of 1000 nM to 0.051 nM with 3-fold dilutions for 5 minutes at 70 μl/min and then allowed to dissociate in buffer for 5 minutes. Regeneration was achieved by injecting 10 mM glycine pH1.5 (GE Healthcare, BR100354) and surfactant P20 (GE Healthcare, BR-1000-54) for 20 seconds at a rate of 30 μl/min.
The source holds these as a separate data set.

For assay [8], the target named is T2, cell surface human mesothelin (MSLN). Kind of assay: flow cytometry, NCI-H226 cells. As to the method: as §1, with “Cells” for “Briefly, NCI-H226 cells (ATCC CRL-5826) were harvested from T175 cell culture flasks using StemPro Accutase (Gibco, A11105-01). Cells”
(§6) Cell binding assays using OVCAR-3 cells were performed similarly to the assays described in section 2.4. The effect of the presence of soluble MSLN was tested by pre-incubating the antibodies in the presence or absence of soluble MSLN before mixing with cells and determining if the pre-incubation affected binding to MSLN on the cell surface. […] 60 μl from each well was then added to either FACS buffer alone or to FACS buffer containing 60 μl of 40 nM recombinant hMSLN (R&D systems, 3265-MS-050) (to give a final concentration of 20 nM hMSLN) and pre-incubated at room temperature for 1 hour before 100 μl was added to the cells. Bound antibody was detected using goat anti-human anti-Fcγ Alexa-Fluor 488 (Jackson Immunoresearch, 109-546-098).
(§7) The method used was exactly as described in section 3.1.4.

In assay [9] the target is T1, human MSLN-His-Avi. Nature of the assay: SPR (Biacore), MSLN immobilised, mAb^2 injected. As to the method:
as §2, §4

Assay [10] deals with T2, cell surface human mesothelin (MSLN). Nature of the assay: flow cytometry, NCI-H226 cells + 20 nM soluble MSLN. As to the method:
as §1, with “Cells” for “Briefly, NCI-H226 cells (ATCC CRL-5826) were harvested from T175 cell culture flasks using StemPro Accutase (Gibco, A11105-01). Cells”
as §6, §7

For assay [11], the target named is T1, human MSLN-His-Avi. Kind of assay: SPR (Biacore), mAb^2 captured on Protein G, MSLN in solution injected. As to the method: as §4
as §5, with “μl/min. Subtracted data (flow cell 2−flow cell 1, flow cell 3−flow cell 1, or flow cell 4−flow cell 1) were analysed using BIAevaluation 3.2 Software (GE Healthcare) to identify binding using the model 1:1 binding, local Rmax and with refractive index (RI) constant 0.” for “μl/min.”

The next assay has as its target T3, cynomolgus MSLN-His-Avi (cynomolgus, single biotin (BirA) in the biotinylated form).
T3 construct: Monomeric, made in HEK293-6E; also called cMSLN-His-Avi; cyno MSLN-His-Avi
T3 chain: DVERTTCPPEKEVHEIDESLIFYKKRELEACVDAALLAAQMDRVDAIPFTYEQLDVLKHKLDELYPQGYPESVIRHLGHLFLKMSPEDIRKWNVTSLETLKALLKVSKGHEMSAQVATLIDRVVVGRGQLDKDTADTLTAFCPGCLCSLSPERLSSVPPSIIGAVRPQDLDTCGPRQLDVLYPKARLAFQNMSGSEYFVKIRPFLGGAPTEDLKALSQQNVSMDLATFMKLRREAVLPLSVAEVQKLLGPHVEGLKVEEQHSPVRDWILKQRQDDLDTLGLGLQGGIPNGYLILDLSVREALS
The description is as above. As to the method: as §4
as §5, with “μl/min. Subtracted data (flow cell 2−flow cell 1, flow cell 3−flow cell 1, or flow cell 4−flow cell 1) were analysed using BIAevaluation 3.2 Software (GE Healthcare) to identify binding using the model 1:1 binding, local Rmax and with refractive index (RI) constant 0.” for “μl/min.”

T2 sequence (Q13421 other isoform, or with tags, fused parts or gaps limits assumed): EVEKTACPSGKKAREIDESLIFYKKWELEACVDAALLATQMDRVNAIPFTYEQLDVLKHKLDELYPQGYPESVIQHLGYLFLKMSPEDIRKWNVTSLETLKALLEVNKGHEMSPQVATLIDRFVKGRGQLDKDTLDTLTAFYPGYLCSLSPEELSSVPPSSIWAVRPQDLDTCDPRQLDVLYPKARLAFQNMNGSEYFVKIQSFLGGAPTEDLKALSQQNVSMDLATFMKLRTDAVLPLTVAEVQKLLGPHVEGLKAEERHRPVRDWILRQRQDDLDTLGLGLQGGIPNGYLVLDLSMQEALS
T1 sequence (Q13421 other isoform, or with tags, fused parts or gaps): as the sequence (Q13421 other isoform, or with tags, fused parts or gaps limits assumed) above

B1: FS28-256-274 (in CD137 mAb^2 format) (bispecific antibody, V domains shown)
VH: EVQLLESGGGLVQPGGSLRLSCAASGFTFTHTYMSWVRQAPGKGLEWVSTISPTYSTTNYADSVKGRFTISRDNNKNTLYLQMNSLRAEDTAVYYCARYNAYHAALDYWGQGTLVTVSS
VL: EIVLTQSPGTLSLSPGERATLSCRASQSVSSSYLAWYQQKPGQAPRLLIYGASSRATGIPDRFSGSGSGTDFTLTISRLEPEDFAVYYCQQTVPYPYTFGQGTKVEIK
Turning to B1, in the assay with human MSLN-His-Avi [1], the “Ratio of KD in solution/immobilised for human MSLN-His-Avi” value (“Ratio of KD in solution/immobilised” below) stood at 2.8. Moreover, the figures for the equilibrium dissociation constant (Kd) with human MSLN-His-Avi [2] and with human MSLN-His-Avi [3] were 19.8 nM and 55.9 nM, respectively.

B2: G1-AA/FS28-256 (antibody, human IgG1, kappa, L234A L235A, V domains shown)
VH: EVQLLESGGGLVQPGGSLRLSCAASGFTFTNTYMSWVRQAPGKGLEWVSNISPTYSTTNYADSVKGRFTISRDNSKNTLYLQMNSLRAEDTAVYYCARYNSYQGGLDYWGQGTLVTVSS
VL: EIVLTQSPGTLSLSPGERATLSCRASQSVSSSYLAWYQQKPGQAPRLLIYGASSRATGIPDRFSGSGSGTDFTLTISRLEPEDFAVYYCQQSYYYPITFGQGTKVEIKR
notes: IgG1 LALA
On to B2, for which, in assay [4], the EC50 worked out at 33.1 nM and the “Emax (MFI signal)” value is 4250 MFI. The same molecule displayed a dissociation constant Kd with human MSLN-His-Avi [5] of 26.2 nM. The molecule also registered an equilibrium dissociation constant (Kd) in the assay with human MSLN-His-Avi [6] of 23.2 nM.

B3: FS22-053-008-AA/FS28-256-026 mAb^2 (bispecific antibody, human IgG1, kappa, L234A L235A, V domains shown)
VH: EVQLLESGGGLVQPGGSLRLSCAASGFTFTQTYMSWVRQAPGKGLEWVSNISPTYSTTNYADSVKGRFTISRDNSKNTLYLQMNSLRAEDTAVYYCARYNAYQIGLDYWGQGTLVTVSS
VL: EIVLTQSPGTLSLSPGERATLSCRASQSVSSSYLAWYQQKPGQAPRLLIYGASSRATGIPDRFSGSGSGTDFTLTISRLEPEDFAVYYCQQALGYPHTFGQGTKVEIKR
With B3, in the assay with human MSLN-His-Avi [7], the “Ratio of KD in solution/immobilised” value came to 19.5. The EC50 in assay [8] came to 2.43 nM; in [10] it was 4.59 nM. Also, the “Emax (MFI)” value was determined as 741000 MFI in [8] and 715000 MFI in assay [10]. The Kd with human MSLN-His-Avi [9] turned out to be 3.2 nM; with human MSLN-His-Avi [11], 62.3 nM; in the assay with cynomolgus MSLN-His-Avi, 33.2 nM.

B4: FS22-053-008-AA/FS28-256-027 mAb^2 (bispecific antibody, human IgG1, kappa, L234A L235A, V domains shown)
VH: EVQLLESGGGLVQPGGSLRLSCAASGFTFTHTYMSWVRQAPGKGLEWVSNISPTYSTTNYADSVKGRFTISRDNNKNTLYLQMNSLRAEDTAVYYCARYNAYHAALDYWGQGTLVTVSS
VL: EIVLTQSPGTLSLSPGERATLSCRASQSVSSSYLAWYQQKPGQAPRLLIYGASSRATGIPDRFSGSGSGTDFTLTISRLEPEDFAVYYCQQTVPYPYTFGQGTKVEIKR
For B4, in the assay with human MSLN-His-Avi [7], the “Ratio of KD in solution/immobilised” value came out at 5.3. Moreover, the EC50 turned out to be 3.93 nM in assay [8] and 21.8 nM in assay [10]. The “Emax (MFI)” value in [8] came out at 987000 MFI; in [10], 964000 MFI. Also, the equilibrium dissociation constant (Kd) was 1.1 nM with human MSLN-His-Avi [9], 6 nM with human MSLN-His-Avi [11] and 0.7 nM with cynomolgus MSLN-His-Avi.
